The record followed here is publication PMC13169712, “Structural determinants of peanut-induced anaphylaxis” (The Journal of allergy and clinical immunology, 2025).

Details in all cases: both partners purified
Experiment [1] has as its target T1, recombinant Ara h 6 (Arachis hypogaea, UniProt Q647G9).
T1 construct: Ara h 6, Arachis hypogaea; May be the same construct as Ara h 6c; also called rAra h 6; rArah6; source: recombinant
Put plainly: SPR; Carterra LSA; antibodies noncovalently bound to PAGHC30M (Protein A/G) sensor chips; analyte at 0.16, 0.8, 4, 20, 100 and 500 nM in HBS-TE, 0.05% BSA; 5 min association, 15 min dissociation.

Experiment [2] deals with T2, recombinant Ara h 2.01 (Arachis hypogaea, Ara h 2.01, UniProt Q6PSU2;PDB, strain).
T2 construct: also called rArah2.01; source: HEK cell-produced, recombinant
Description: SPR; Carterra LSA; antibody as ligand, allergen or peptide as analyte; how the antibody was held for these pairs is not told.

Experiment [3] addresses T3, recombinant Ara h 2.02 (Arachis hypogaea, Ara h 2.02, UniProt Q6PSU2, strain).
T3 construct: also called rArah2.02; source: recombinant
The experiment is described as above.

Experiment [4] has as its target T4, rAra h 2 with the DPYSPS-containing loop deleted (Arachis hypogaea, Ara h 2.01 background, UniProt Q6PSU2;PDB, point mutant).
T4 construct: also called rAra h 2_loopdel; rArah2_loopdel
Description: SPR; Carterra LSA; antibodies noncovalently bound to PAGHC30M (Protein A/G) sensor chips; analyte at 0.16, 0.8, 4, 20, 100 and 500 nM in HBS-TE, 0.05% BSA; 5 min association, 15 min dissociation. In general terms: Surface plasmon resonance follows binding to a sensor surface in real time, without labels.

In experiment [5] the target is T3, recombinant Ara h 2.02. Described as above.

B1: 38B7 human IgE mAb (antibody, V domains shown)
VH: QVQLVESGGGVVQPGRSLRLSCVGSGFTFRRDAKYWVRQAPGKGLEWVAAISHDGGEEDYAESVKGRFTISRDNSRETVYLEMNSLRPEDTAVYYCATTRSGWYFDYWGQGALVTVSS
VL: EIVLTQSPATLSLSPGARATLSCRASQSVDTYLAWYQQRRGQSPRLLIYDASKRATGIPARFSGSGSGTDFTLTISSLEPEDFAVYYCQQRNNWRTWTFGQGTKVEIN
notes: variable region as in the heavy chain of m5; human IgE heavy chain constant region; as the light chain of m5; In the SPR some pairs used antibody captured on a Protein A/G chip; also called IgE mAb 38B7; 38B7 IgE
For orientation: Kd means the concentration at which binding is half-saturated. The koff is a measure of how fast the partners let go of each other. One may read the kon as the rate constant with which the complex forms. B1: the binding result in experiment [1] is “no binding (tested: 500 nM (highest analyte concentration))”. Besides, in experiment [2], the Kd is 30000 pM, the koff came to 0.000459 s⁻¹ and the kon stood at 15500 M⁻¹ s⁻¹. In experiment [3], the Kd was 3500 pM, the koff came to 0.000474 s⁻¹ and the kon was determined as 165000 M⁻¹ s⁻¹.

B2: 16A8 human IgE mAb (antibody, V domains shown)
VH: QVQLVQSGPDVRKPGATVKVSCQTSGYRFTDYEMNWVRQAPGQGLEWIGLINPHSGDTAYAQKFQGRVTMTSDTSDSTVYLELSGLTPDDTAVYYCARSQGTFEVYYFVSWGQGSLVTVSS
VL: SYVLTQPPSMSVAPGTTASIPCGANNIAKKRVHWYRQKPGQAPVVVVSDDEDRSSVIPDRFSGSKSGDTATLTISRVEAGDEGDYYCQVWDSKTDHVVFGGGTKVTVL
notes: variable region as in the heavy chain of m1; human IgE heavy chain constant region; as the light chain of m1; In the SPR some pairs used antibody captured on a Protein A/G chip; also called 16A8 antibody
Regarding B2, the Kd in experiment [1] was determined as 36 pM; in experiment [4] it was 17 pM; in experiment [5] it was 36 pM; in experiment [2] it was 65 pM. The off-rate constant (koff) in experiment [1] was 8.57e-05 s⁻¹; in experiment [4], 3.69e-05 s⁻¹; in experiment [5], 3.82e-05 s⁻¹; in experiment [2] it was 5.63e-05 s⁻¹. Also, the kon in experiment [1] was determined as 2.39e+06 M⁻¹ s⁻¹; in experiment [4] it was 2.22e+06 M⁻¹ s⁻¹; in experiment [5] it was 1.35e+06 M⁻¹ s⁻¹; in experiment [2], 872000 M⁻¹ s⁻¹.
